Experimental findings from paper PMC8307404, “Crystal Structure-Guided Design of Bisubstrate Inhibitors and Photoluminescent Probes for Protein Kinases of the PIM Family” (Molecules, 2021) are described below.

Each structure is given as a SMILES string. Square brackets hold non-standard residues; d marks the D form. Peptide text beside a SMILES is read from it. * marks the point of attachment. X3 = O=C(CCCCCNCc1nc2c(sc3cc(Br)cnc32)c(=O)[nH]1)*

Holding throughout (assay): Kinase profiling (radiometric filter-binding)
What all share (format): biochemical

One data set has as its target DYRK1A (Homo sapiens, UniProt Q13627). Conditions: 1 µM inhibitor, read-out: Residual activity, %. The procedure: (§1) Kinase selectivity profiling was performed using the commercial service provided by the MRC PPU International Centre for Kinase Profiling (Dundee, UK) using a radiometric filter-binding assay. Kinases used for analysis were of human origin. The ATP concentration applied for inhibition measurements was at or below the ATP KM value of the particular PK. ARC-3125 and ARC-3126 were screened against 139 PKs, whereas compounds 1, 2, and 8 were screened against 140 PKs. The final total concentration of inhibitors in the selectivity panel was 1 µM. Residual activities were expressed as the percentage of retained activity compared to the control without inhibitor.

The target of another data set is PKBβ (Homo sapiens, UniProt P31751). The following applies: PKB, second of two PKB lines (Greek letter lost; PKBβ), 1 µM inhibitor; read-out: Residual activity, %. The procedure: as §1
Sequence of PKBβ (P31751 whole entry): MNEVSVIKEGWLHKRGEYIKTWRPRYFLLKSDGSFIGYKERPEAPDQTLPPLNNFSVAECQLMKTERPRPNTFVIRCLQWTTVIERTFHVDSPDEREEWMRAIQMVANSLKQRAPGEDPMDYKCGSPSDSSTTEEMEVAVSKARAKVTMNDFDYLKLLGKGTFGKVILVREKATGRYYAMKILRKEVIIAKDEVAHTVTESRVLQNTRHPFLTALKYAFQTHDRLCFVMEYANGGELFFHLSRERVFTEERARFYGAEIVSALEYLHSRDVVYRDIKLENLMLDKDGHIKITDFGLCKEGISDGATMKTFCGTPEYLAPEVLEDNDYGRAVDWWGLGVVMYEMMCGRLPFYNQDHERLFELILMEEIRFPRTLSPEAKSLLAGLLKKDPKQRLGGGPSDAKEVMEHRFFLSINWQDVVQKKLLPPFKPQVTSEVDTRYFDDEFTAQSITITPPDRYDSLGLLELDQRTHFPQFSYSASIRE
In the next data set the target is CAMK1 (Homo sapiens, UniProt Q14012). Conditions: CAMK1, 1 µM inhibitor; read-out: Residual activity, %. The method, then:
as §1

For a further data set, the target named is RSK1 (Homo sapiens, UniProt Q15418). The following applies: RSK1, 1 µM inhibitor; read-out: Residual activity, %. The method, then:
as §1

For the next data set, the target named is T1, TAO1 (Homo sapiens, UniProt Q7L7X3).
T1 sequence (Q7L7X3 1-1001): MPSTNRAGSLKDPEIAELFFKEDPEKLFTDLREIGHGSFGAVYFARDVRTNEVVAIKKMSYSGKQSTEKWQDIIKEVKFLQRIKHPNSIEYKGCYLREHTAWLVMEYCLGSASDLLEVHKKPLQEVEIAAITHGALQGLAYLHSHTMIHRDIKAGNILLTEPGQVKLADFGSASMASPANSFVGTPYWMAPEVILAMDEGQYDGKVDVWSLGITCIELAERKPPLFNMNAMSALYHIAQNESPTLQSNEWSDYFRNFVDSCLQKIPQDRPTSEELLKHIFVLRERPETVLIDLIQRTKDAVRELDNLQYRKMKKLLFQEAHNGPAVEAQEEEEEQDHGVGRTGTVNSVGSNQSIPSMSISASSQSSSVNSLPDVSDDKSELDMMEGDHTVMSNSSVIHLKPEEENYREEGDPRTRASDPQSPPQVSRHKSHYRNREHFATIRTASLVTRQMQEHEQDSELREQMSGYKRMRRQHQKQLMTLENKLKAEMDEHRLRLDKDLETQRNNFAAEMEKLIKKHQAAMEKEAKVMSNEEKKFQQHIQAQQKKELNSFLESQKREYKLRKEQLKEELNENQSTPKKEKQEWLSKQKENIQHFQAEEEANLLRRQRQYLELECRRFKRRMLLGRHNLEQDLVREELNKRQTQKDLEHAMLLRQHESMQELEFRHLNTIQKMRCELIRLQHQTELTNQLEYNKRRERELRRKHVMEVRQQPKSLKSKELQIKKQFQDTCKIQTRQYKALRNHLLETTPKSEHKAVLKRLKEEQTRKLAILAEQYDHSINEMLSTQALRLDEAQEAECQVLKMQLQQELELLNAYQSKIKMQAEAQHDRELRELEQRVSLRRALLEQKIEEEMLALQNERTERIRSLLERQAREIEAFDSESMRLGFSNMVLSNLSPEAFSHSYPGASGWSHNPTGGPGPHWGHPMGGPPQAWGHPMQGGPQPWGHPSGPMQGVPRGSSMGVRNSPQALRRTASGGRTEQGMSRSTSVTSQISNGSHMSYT
The following applies: TAO1, 1 µM inhibitor; read-out: Residual activity, %. The method, then: as §1

For the next data set, the target named is T2, TBK1 (Homo sapiens, UniProt Q9UHD2).
T2 sequence (Q9UHD2 1-729): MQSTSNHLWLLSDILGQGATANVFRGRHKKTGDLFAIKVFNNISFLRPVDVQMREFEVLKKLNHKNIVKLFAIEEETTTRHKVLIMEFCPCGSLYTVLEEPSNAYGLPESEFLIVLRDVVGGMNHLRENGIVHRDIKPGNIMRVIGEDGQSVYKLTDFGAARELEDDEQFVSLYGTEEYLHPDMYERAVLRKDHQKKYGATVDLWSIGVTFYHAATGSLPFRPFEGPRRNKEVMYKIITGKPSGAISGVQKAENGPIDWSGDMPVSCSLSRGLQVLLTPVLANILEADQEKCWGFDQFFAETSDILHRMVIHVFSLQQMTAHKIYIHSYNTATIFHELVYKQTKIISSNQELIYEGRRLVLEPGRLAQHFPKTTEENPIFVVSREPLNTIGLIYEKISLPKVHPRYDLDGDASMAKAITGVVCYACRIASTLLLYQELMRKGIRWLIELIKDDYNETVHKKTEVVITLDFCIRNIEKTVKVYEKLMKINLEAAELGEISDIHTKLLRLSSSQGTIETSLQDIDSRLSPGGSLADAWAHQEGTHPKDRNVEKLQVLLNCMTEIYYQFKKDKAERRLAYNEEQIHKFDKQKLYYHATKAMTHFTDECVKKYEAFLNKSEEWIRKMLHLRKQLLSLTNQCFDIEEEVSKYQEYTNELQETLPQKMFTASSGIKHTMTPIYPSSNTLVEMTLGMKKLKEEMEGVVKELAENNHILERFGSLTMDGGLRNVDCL
The following applies: TBK1, 1 µM inhibitor; read-out: Residual activity, %. The method, then:
as §1

Sequence of CAMK1 (Q14012 whole entry): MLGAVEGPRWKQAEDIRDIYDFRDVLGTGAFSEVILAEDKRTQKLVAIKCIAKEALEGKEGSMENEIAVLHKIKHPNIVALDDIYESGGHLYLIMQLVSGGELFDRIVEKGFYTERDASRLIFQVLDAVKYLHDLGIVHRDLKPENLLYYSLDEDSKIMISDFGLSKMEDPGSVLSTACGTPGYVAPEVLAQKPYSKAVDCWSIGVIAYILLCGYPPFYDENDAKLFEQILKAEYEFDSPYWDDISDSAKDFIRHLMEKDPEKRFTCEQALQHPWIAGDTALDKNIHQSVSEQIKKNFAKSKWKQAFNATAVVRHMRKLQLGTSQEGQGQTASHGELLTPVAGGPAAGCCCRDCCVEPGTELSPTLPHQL
Sequence of RSK1 (Q15418 whole entry): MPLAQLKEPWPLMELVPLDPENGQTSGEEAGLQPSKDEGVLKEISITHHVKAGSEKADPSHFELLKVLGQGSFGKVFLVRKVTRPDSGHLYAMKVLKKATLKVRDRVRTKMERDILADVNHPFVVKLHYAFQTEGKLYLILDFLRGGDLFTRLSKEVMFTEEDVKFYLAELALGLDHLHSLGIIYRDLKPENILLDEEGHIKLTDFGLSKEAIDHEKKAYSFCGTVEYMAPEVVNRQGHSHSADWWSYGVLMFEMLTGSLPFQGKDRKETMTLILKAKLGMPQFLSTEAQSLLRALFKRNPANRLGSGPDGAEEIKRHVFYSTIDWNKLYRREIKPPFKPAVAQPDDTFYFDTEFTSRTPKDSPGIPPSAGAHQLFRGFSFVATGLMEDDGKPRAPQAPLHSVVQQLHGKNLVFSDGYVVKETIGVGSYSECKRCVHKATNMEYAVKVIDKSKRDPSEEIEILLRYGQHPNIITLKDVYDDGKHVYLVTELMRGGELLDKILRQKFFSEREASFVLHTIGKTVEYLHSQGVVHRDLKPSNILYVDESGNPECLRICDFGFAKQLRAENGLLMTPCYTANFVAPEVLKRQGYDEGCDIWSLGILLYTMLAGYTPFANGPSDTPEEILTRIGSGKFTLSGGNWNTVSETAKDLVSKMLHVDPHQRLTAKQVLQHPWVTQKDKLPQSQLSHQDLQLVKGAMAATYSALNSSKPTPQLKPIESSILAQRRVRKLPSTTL

Take `N=C(N)NCCC[C@@H](NC(=O)CCCCCNC(=O)Cn1cnc2c(I)c(I)c(I)c(I)c21)C(=O)N[C@H](CCCNC(=N)N)C(=O)N[C@H](CCCNC(=N)N)C(=O)N[C@H](CCCNC(=N)N)C(=O)N[C@H](CCCNC(=N)N)C(=O)N[C@H](CCCNC(=N)N)C(=O)N[C@H](CCCCN)C(N)=O` [ARC-3125, TIBI-CH2-C(=O)-Ahx-(D-Arg)6-D-Lys-NH2]: the remaining activity at 1 µM with DYRK1A is 28 ± 7%; with PKBβ it was 1 ± 1%; with CAMK1, 3 ± 11%; in the data set with RSK1 it was 19 ± 1%; with TAO1, 32 ± 6%; with TBK1, 68 ± 3%.
`N=C(N)NCCC[C@@H](NC(=O)CCCCCNCc1nc2c(sc3cc(Br)cnc32)c(=O)[nH]1)C(=O)N[C@H](CCCNC(=N)N)C(=O)N[C@H](CCCNC(=N)N)C(=O)N[C@H](CCCNC(=N)N)C(=O)N[C@H](CCCNC(=N)N)C(=O)N[C@H](CCCNC(=N)N)C(=O)N[C@H](CCCCN)C(N)=O` [ARC-3126, BPTP-Ahx-(D-Arg)6-D-Lys-NH2] (X3-[dR][dR][dR][dR][dR][dR][dK]-NH2): the remaining activity at 1 µM in the data set with DYRK1A came to 99 ± 6%; in the data set with PKBβ it was 86 ± 10%; in the data set with CAMK1, 55 ± 9%; with RSK1, 82 ± 10%; in the data set with TAO1, 95 ± 3%; with TBK1 it was 105 ± 12%.
Take `N=C(N)NCCC[C@@H](NC(=O)CNC(=O)[C@@H](CCCNC(=N)N)NC(=O)[C@@H](CCCNC(=N)N)NC(=O)CCCCCCCNCc1nc2c(sc3cc(Br)cnc32)c(=O)[nH]1)C(=O)N[C@H](CCCCN)C(N)=O` [Compound 1, BPTP-Aoc-(D-Arg)2-Gly-D-Arg-D-Lys-NH2]: the remaining activity at 1 µM amounted to 74% in the data set with DYRK1A; 115 ± 26% in the data set with PKBβ; 81 ± 18% in the data set with CAMK1; 95% with RSK1; 106 ± 10% with TAO1; 113 ± 29% with TBK1.
`N=C(N)NCCC[C@@H](NC(=O)CNC(=O)[C@@H](CCCNC(=N)N)NC(=O)[C@@H](CCCNC(=N)N)NC(=O)CCCCCCCNCc1nc2c(sc3ccc(Br)cc32)c(=O)[nH]1)C(=O)N[C@H](CCCCN)C(N)=O` [Compound 2, BBTP-Aoc-(D-Arg)2-Gly-D-Arg-D-Lys-NH2]: the remaining activity at 1 µM in the data set with DYRK1A was 5%; with PKBβ, 101%; with CAMK1 it was 81%; with RSK1 it was 31%; with TAO1, 49%; with TBK1, 113%.
For the compound `N=C(N)NCCC[C@@H](NC(=O)CNC(=O)[C@@H](CCCNC(=N)N)NC(=O)[C@@H](CCCNC(=N)N)NC(=O)Cn1cc(CNCc2nc3c(sc4ccc(Br)cc43)c(=O)[nH]2)nn1)C(=O)N[C@H](CCCCN)C(N)=O` [Compound 3, BBTP-Amt-(D-Arg)2-Gly-D-Arg-D-Lys-NH2], the remaining activity at 1 µM with DYRK1A was 37 ± 15%; with PKBβ, 54 ± 6%; with CAMK1 it was 49 ± 11%; with RSK1, 74 ± 12%; with TAO1 it was 80 ± 4%; in the data set with TBK1 it was 46 ± 4%.
Turning to `CN(C)c1ccc2c(c1)Oc1cc(N(C)C)ccc1C21OC(=O)c2cc(C(=O)NCCCC[C@@H](NC(=O)[C@@H](CCCNC(=N)N)NC(=O)CNC(=O)[C@@H](CCCNC(=N)N)NC(=O)[C@@H](CCCNC(=N)N)NC(=O)CCCCc3cn(Cc4nc5c(sc6ccc(Br)cc65)c(=O)[nH]4)nn3)C(N)=O)ccc21` [Compound 8, BBTP-Tap-(D-Arg)2-Gly-D-Arg-[D-Lys(5-TAMRA)]-NH2], the remaining activity at 1 µM with DYRK1A was found to be 37%; in the data set with PKBβ, 54%; with CAMK1 it was 49%; with RSK1, 74%; with TAO1, 80%; with TBK1, 46%.
